Molecular target: T1, VWF73-G6PDH conjugate (inhibited G6PDH-VWF reporter enzyme complex), P11411
T1 chain 1: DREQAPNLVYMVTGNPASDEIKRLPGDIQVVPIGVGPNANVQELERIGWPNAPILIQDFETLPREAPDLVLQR
T1 chain 2: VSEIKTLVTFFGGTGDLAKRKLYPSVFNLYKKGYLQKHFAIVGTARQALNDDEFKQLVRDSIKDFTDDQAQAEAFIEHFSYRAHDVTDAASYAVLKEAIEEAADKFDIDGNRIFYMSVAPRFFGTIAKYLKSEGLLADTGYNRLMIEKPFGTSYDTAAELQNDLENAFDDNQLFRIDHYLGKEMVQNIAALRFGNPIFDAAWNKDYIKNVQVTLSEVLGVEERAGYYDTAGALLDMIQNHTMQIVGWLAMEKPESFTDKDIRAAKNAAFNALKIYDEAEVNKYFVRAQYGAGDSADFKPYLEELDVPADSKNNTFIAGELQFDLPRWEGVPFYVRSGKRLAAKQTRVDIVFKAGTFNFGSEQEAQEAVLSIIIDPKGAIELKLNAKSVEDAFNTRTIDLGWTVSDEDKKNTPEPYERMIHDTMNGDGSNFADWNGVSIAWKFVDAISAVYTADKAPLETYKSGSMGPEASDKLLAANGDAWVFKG

B1: ADAMTS-13 (A Disintegrin And Metalloproteinase with a Thrombospondin type 1 motif, member 13) (protein)
chain: AAGGILHLELLVAVGPDVFQAHQEDTERYVLTNLNIGAELLRDPSLGAQFRVHLVKMVILTEPEGAPNITANLTSSLLSVCGWSQTINPEDDTDPGHADLVLYITRFDLELPDGNRQVRGVTQLGGACSPTWSCLITEDTGFDLGVTIAHEIGHSFGLEHDGAPGSGCGPSGHVMASDGAAPRAGLAWSPCSRRQLLSLLSAGRARCVWDPPRPQPGSAGHPPDAQPGLYYSANEQCRVAFGPKAVACTFAREHLDMCQALSCHTDPLDQSSCSRLLVPLLDGTECGVEKWCSKGRCRSLVELTPIAAVHGRWSSWGPRSPCSRSCGGGVVTRRRQCNNPRPAFGGRACVGADLQAEMCNTQACEKTQLEFMSQQCARTDGQPLRSSPGGASFYHWGAAVPHSQGDALCRHMCRAIGESFIMKRGDSFLDGTRCMPSGPREDGTLSLCVSGSCRTFGCDGRMDSQQVWDRCQVCGGDNSTCSPRKGSFTAGRAREYVTFLTVTPNLTSVYIANHRPLFTHLAVRIGGRYVVAGKMSISPNTTYPSLLEDGRVEYRVALTEDRLPRLEEIRIWGPLQEDADIQVYRRYGEEYGNLTRPDITFTYFQPKPRQAWVWAAVRGPCSVSCGAGLRWVNYSCLDQARKELVETVQCQGSQQPPAWPEACVLEPCPPYWAVGDFGPCSASCGGGLRERPVRCVEAQGSLLKTLPPARCRAGAQQPAVALETCNPQPCPARWEVSEPSSCTSAGGAGLALENETCVPGADGLEAPVTEGPGSVDEKLPAPEPCVGMSCPPGWGHLDATSAGEKAPSPWGSIRTGAQAAHVWTPAAGSCSVSCGRGLMELRFLCMDSALRVPVQEELCGLASKPGSRREVCQAVPCPARWQYKLAACSVSCGRGVVRRILYCARAHGEDDGEEILLDTQCQGLPRPEPQEACSLEPCPPRWKVMSLGPCSASCGLGTARRSVACVQLDQGQDVEVDEAACAALVRPEASVPCLIADCTYRWHVGTWMECSVSCGDGIQRRRDTCLGPQAQAPVPADFCQHLPKPVTVRGCWAGPCVGQGTPSLVPHEEAAAPGRTTATPAGASLEWSQARGLLFSPAPQPRRLLPGPQENSVQSSACGRQHLEPTGTIDMRGPGQADCAVAIGRPLGEVVTLRVLESSLNCSAGDMLLLWGRLTWRKMCRKLLDMTFSSKTNTLVVRQRCGRPGGGVLLRYGSQLAPETFYRECDMQLFGPWGEIVSPSLSPATSNAGGCRLFINVAPHARIAIHALATNMGAGTEGANASYILIRDTHSLRTTAFHGQQVLYWESESSQAEMEFSEGFLKAQASLRGQYWTLQSWVPEMQDPQSWKGKEGT
ADAMTS-13 activity (% of the norm); plasma of TTP patient 01: TTP patient 01 with 9% of the norm
ADAMTS-13 activity (% of the norm); plasma of TTP patient 02: TTP patient 02 with 7% of the norm
ADAMTS-13 activity (% of the norm); plasma of patient with ADAMTS-13 autoantibodies: patient with 21% of the norm
reactivation of G6PDH activity by cleavage of coupled VWF73 (absorption at 340 nm): occurs in a concentration-dependent manner with respect to ADAMTS-13 activity
Δ mOD/min Average; 0% normal plasma in ADAMTS-13-deficient plasma: 208 Δ mOD/min
Δ mOD/min Average; 5% normal plasma in ADAMTS-13-deficient plasma: 215 Δ mOD/min
Δ mOD/min Average; 10% normal plasma in ADAMTS-13-deficient plasma: 220 Δ mOD/min
Δ mOD/min Average; 25% normal plasma in ADAMTS-13-deficient plasma: 232 Δ mOD/min
Δ mOD/min Average; 50% normal plasma in ADAMTS-13-deficient plasma: 256 Δ mOD/min
Δ mOD/min Average; 75% normal plasma in ADAMTS-13-deficient plasma: 286 Δ mOD/min
Δ mOD/min Average; 100% normal plasma in ADAMTS-13-deficient plasma: 311 Δ mOD/min
Δ mOD/min Average; plasma of Healthy donor 01: 310 Δ mOD/min
Δ mOD/min Average; plasma of Healthy donor 02: 311 Δ mOD/min
Δ mOD/min Average; plasma of Healthy donor 03: 307 Δ mOD/min
Δ mOD/min Average; plasma of Healthy donor 04: 310 Δ mOD/min
Δ mOD/min Average; plasma of Healthy donor 05: 314 Δ mOD/min
Δ mOD/min Average; plasma of Patient with ADAMTS-13 autoantibodies: 228 Δ mOD/min
Δ mOD/min Average; plasma of TTP patient 01: 218 Δ mOD/min
Δ mOD/min Average; plasma of TTP patient 02: 216 Δ mOD/min
Δ mOD/min Measurement 1; 0% normal plasma in ADAMTS-13-deficient plasma: 208 Δ mOD/min
Δ mOD/min Measurement 1; 5% normal plasma in ADAMTS-13-deficient plasma: 216 Δ mOD/min
Δ mOD/min Measurement 1; 10% normal plasma in ADAMTS-13-deficient plasma: 221 Δ mOD/min
Δ mOD/min Measurement 1; 25% normal plasma in ADAMTS-13-deficient plasma: 232 Δ mOD/min
Δ mOD/min Measurement 1; 50% normal plasma in ADAMTS-13-deficient plasma: 255 Δ mOD/min
Δ mOD/min Measurement 1; 75% normal plasma in ADAMTS-13-deficient plasma: 286 Δ mOD/min
Δ mOD/min Measurement 1; 100% normal plasma in ADAMTS-13-deficient plasma: 310 Δ mOD/min
Δ mOD/min Measurement 1; plasma of Healthy donor 01: 309 Δ mOD/min
Δ mOD/min Measurement 1; plasma of Healthy donor 02: 310 Δ mOD/min
Δ mOD/min Measurement 1; plasma of Healthy donor 03: 305 Δ mOD/min
Δ mOD/min Measurement 1; plasma of Healthy donor 04: 312 Δ mOD/min
Δ mOD/min Measurement 1; plasma of Healthy donor 05: 315 Δ mOD/min
Δ mOD/min Measurement 1; plasma of Patient with ADAMTS-13 autoantibodies: 227 Δ mOD/min
Δ mOD/min Measurement 1; plasma of TTP patient 01: 218 Δ mOD/min
Δ mOD/min Measurement 1; plasma of TTP patient 02: 220 Δ mOD/min
Δ mOD/min Measurement 2; 0% normal plasma in ADAMTS-13-deficient plasma: 208 Δ mOD/min
Δ mOD/min Measurement 2; 5% normal plasma in ADAMTS-13-deficient plasma: 216 Δ mOD/min
Δ mOD/min Measurement 2; 10% normal plasma in ADAMTS-13-deficient plasma: 221 Δ mOD/min
Δ mOD/min Measurement 2; 25% normal plasma in ADAMTS-13-deficient plasma: 233 Δ mOD/min
Δ mOD/min Measurement 2; 50% normal plasma in ADAMTS-13-deficient plasma: 257 Δ mOD/min
Δ mOD/min Measurement 2; 75% normal plasma in ADAMTS-13-deficient plasma: 288 Δ mOD/min
Δ mOD/min Measurement 2; 100% normal plasma in ADAMTS-13-deficient plasma: 312 Δ mOD/min
Δ mOD/min Measurement 2; plasma of Healthy donor 01: 310 Δ mOD/min
Δ mOD/min Measurement 2; plasma of Healthy donor 02: 311 Δ mOD/min
Δ mOD/min Measurement 2; plasma of Healthy donor 03: 309 Δ mOD/min
Δ mOD/min Measurement 2; plasma of Healthy donor 04: 311 Δ mOD/min
Δ mOD/min Measurement 2; plasma of Healthy donor 05: 312 Δ mOD/min
Δ mOD/min Measurement 2; plasma of Patient with ADAMTS-13 autoantibodies: 228 Δ mOD/min
Δ mOD/min Measurement 2; plasma of TTP patient 01: 219 Δ mOD/min
Δ mOD/min Measurement 2; plasma of TTP patient 02: 215 Δ mOD/min
Δ mOD/min Measurement 3; 0% normal plasma in ADAMTS-13-deficient plasma: 207 Δ mOD/min
Δ mOD/min Measurement 3; 5% normal plasma in ADAMTS-13-deficient plasma: 214 Δ mOD/min
Δ mOD/min Measurement 3; 10% normal plasma in ADAMTS-13-deficient plasma: 219 Δ mOD/min
Δ mOD/min Measurement 3; 25% normal plasma in ADAMTS-13-deficient plasma: 233 Δ mOD/min
Δ mOD/min Measurement 3; 50% normal plasma in ADAMTS-13-deficient plasma: 254 Δ mOD/min
Δ mOD/min Measurement 3; 75% normal plasma in ADAMTS-13-deficient plasma: 286 Δ mOD/min
Δ mOD/min Measurement 3; 100% normal plasma in ADAMTS-13-deficient plasma: 311 Δ mOD/min
Δ mOD/min Measurement 3; plasma of Healthy donor 01: 311 Δ mOD/min
Δ mOD/min Measurement 3; plasma of Healthy donor 02: 312 Δ mOD/min
Δ mOD/min Measurement 3; plasma of Healthy donor 03: 306 Δ mOD/min
Δ mOD/min Measurement 3; plasma of Healthy donor 04: 309 Δ mOD/min
Δ mOD/min Measurement 3; plasma of Healthy donor 05: 314 Δ mOD/min
Δ mOD/min Measurement 3; plasma of Patient with ADAMTS-13 autoantibodies: 229 Δ mOD/min
Δ mOD/min Measurement 3; plasma of TTP patient 01: 218 Δ mOD/min
Δ mOD/min Measurement 3; plasma of TTP patient 02: 214 Δ mOD/min

Reference: patent US20230374564
